Laboratory results as given in PMC2645691.
Where a chain is given by its changes, count along the chain named.

B1: GST fused to the GLR-2 cytosolic domain (GST::GLR-2) (domain or fragment)
chain: VEFLFRKNKENREKERNRMRSSRPLKPGILASCERAKQKQLQNRRTKSEEVSTPRSTLF
B2: GST fused to the GLR-2 cytosolic domain with a mutated PDZ recognition motif (GST::GLR-2AAA) (domain or fragment)
chain: B1 chain with T57A, L58A, F59A

Target: FLAG-tagged MAGI-1L (C. elegans)
Experiment: co-IP; COS-7 cells cotransfected with FLAG- and GST-tagged proteins; lysis in modified RIPA (50 mM Tris-HCl pH 7.4, 125 mM NaCl, 0.25% NP-40); anti-FLAG beads; blots with anti-FLAG and anti-GST, films quantified against input

Row | Binder | percent coimmunoprecipitated [%]
1 | B1 | 10
2 | B2 | 0 to 2
